{"source": "paper PMC4264578", "assay_in_all_cases": "EMSA", "key": {"[1]": {"molecular_target": "T1, GST-SUV39H1 (UniProt O43463 1-412)", "T1 sequence": "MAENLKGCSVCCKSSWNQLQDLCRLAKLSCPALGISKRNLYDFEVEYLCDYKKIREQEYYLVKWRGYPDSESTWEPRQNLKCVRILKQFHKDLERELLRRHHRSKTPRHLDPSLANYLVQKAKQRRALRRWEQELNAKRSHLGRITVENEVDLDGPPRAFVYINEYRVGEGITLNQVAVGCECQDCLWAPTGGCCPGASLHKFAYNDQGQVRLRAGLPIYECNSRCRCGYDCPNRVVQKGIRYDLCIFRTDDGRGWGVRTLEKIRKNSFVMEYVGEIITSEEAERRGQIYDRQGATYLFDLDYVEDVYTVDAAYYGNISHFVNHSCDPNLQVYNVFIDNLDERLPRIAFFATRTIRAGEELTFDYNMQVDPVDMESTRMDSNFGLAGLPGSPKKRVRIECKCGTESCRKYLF"}, "[2]": {"molecular_target": "T1, GST-SUV39H1", "remark": "listed apart in the source"}, "[3]": {"molecular_target": "T1, GST-SUV39H1", "remark": "listed apart in the source"}}, "note": "Read-outs that look alike come from different tables or passages of the source."}
{"binder": "(UUAGGG)10 TERRA RNA (ssRNA) RNA: UUAGGGUUAGGGUUAGGGUUAGGGUUAGGGUUAGGGUUAGGGUUAGGGUUAGGGUUAGGG", "values": [{"measurement": "binding result", "setting": "[1]", "value": "binds"}]}
{"binder": "(TTAGGG)10 DNA (ssDNA) DNA: TTAGGGTTAGGGTTAGGGTTAGGGTTAGGGTTAGGGTTAGGGTTAGGGTTAGGGTTAGGG", "values": [{"measurement": "binding result", "setting": "[2]", "value": "no binding"}]}
{"binder": "UUAGGGUUAGGGUUAGGGUUAGGGUUAGGGUUAGGGUUAGGG (ssRNA)", "note": "[(UUAGGG)7 TERRA RNA]", "values": [{"measurement": "binding result", "setting": "[3]", "value": "binds"}]}
